In publication PMC4066811:

Columns and labels:
[1] = biological target: GST-syntaxin 3B T14E (phosphomimetic mutant, without the transmembrane domain) (mouse); experiment: pull-down
[2] = biological target: GST-syntaxin 3B (cytoplasmic domain without the transmembrane domain, residues 2-264), wild type (mouse); experiment: pull-down

amount of bound SNAP-25, normalized to wild type [1]: 180%
amount of bound SNAP-25, normalized to wild type [2]: 100%
Substance: His6-SNAP-25b (recombinant) (from UniProt P60879-1 1-206) (natural protein)
